Numbering of substitutions follows the chain as printed. Each block holds one binder with its values, some of them ahead of it. Ends that are not written are not given here.
Tests used:
[1] = target: T1, human Sclerostin (human, UniProt Q9BQB4 24-213); test: cell-based or functional assay
T1 sequence: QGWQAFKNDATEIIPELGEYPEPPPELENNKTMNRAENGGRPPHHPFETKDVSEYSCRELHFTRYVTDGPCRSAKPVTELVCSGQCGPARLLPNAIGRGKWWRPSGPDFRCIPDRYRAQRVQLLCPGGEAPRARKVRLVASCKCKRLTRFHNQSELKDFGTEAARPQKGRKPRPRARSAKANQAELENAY

[2] = target: T1, human Sclerostin; test: BLI (Gator), antibody on anti-hFc biosensor, Sclerostin as analyte, 1:1 global fit
Method: (§1) The binding affinity of humanized anti-Sclerostin antibodies to human and cynomolgus monkey Sclerostin were determined with bio-layer interferometry using a Gator instrument (Probe Life). Antibodies were immobilized on an anti-hFc biosensor, using a […]. Serial dilutions of human Sclerostin and cynomolgus monkey Sclerostin from 4 μg/ml by two folds in kinetics buffer (PBS, pH 7.4, 0.05% Tween-20, 0.2% BSA, 10 μM biotin) were used as the analytes. Affinity (KD) and kinetic parameters (Kₒₙ and Koff) were calculated from a global fit (1:1) of the data using the Gator software.

[3] = target: T2, cynomolgus monkey Sclerostin (cynomolgus monkey, UniProt Q9BG78 24-213 (Chlorocebus aethiops entry)); test: as above
T2 chain: T1 sequence with E26D, P70Q, E129A, T161P, S178G
Method: as §1

[4] = target: T3, human DKK1 (human, UniProt O94907 32-266); test: BLI (Gator), hAb-2 on anti-hFc probe already holding hSclerostin, hDKK1 as second analyte
T3 construct: Analyte in BLI and the protein added in the reporter assay; also called hDKK1; Dickkopf-1
T3 sequence (looked up): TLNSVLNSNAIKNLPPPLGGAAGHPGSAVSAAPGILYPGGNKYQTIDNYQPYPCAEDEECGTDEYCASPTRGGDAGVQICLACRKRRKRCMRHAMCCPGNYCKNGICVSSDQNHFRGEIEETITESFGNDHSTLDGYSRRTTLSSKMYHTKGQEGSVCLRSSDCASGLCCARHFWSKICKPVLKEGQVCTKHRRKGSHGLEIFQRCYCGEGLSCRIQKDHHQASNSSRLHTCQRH
Method: The bsAb constructs (5 μg/ml) were captured to the anti-hFc HFC probe, then sequentially adding hSclerostin (2 μg/ml) and hDKK1 (2 μg/ml) in kinetics buffer (PBS, pH 7.4, 0.05% Tween-20, 0.2% BSA).

[5] = target: T4, His-tagged human Sclerostin (NCBI reference No. NP_079513.1) (human, UniProt Q9BQB4 24-213); test: ELISA, plate coated with His-tagged human Sclerostin
T4 construct: also called mouse His-tagged human Sclerostin; not shown: His tag
T4 sequence: T1 sequence
Method: The ability of antibodies to specifically bind Sclerostin was determined by an ELISA capture assay. Plates were coated, in a 96-well half-area, with 100 μl/well of mouse His-tagged human Sclerostin (NCBI reference No. is NP_079513.1) [[…]], in coating buffer (PBS, pH 7.4), and incubated at RT for one hour, or 4° C. overnight. The plates were washed once with 100 μl/well of washing solution (PBS containing 0.2% Tween20, BIO-RAD). Plates were then incubated in blocking solution (PBS containing 1% BSA, 1% goat serum and 0.5% Tween20; 100 μl/well) for one hour at room temperature (RT). Anti-Sclerostin antibodies at various concentrations (1000, 333.3, 111.1, 37.0, 12.3, 4.1, 1.4, 0.5, 0.15, 0.05 ng/ml), a positive control antibody Romosozumab or non-Sclerostin related IgG (human or rat IgG, negative control), were then added to each well in 20 μl/well of blocking solution, and plates were incubated at RT for one hour. NeutrAvidin HRP (Pierce, Catalog #31001) diluted in blocking solution (1:50,000 dilution) was added at to each well ([…]), and the plates were incubated at RT for one hour prior to three washes with […] of washing solution. SuperSignal ELISA Femto (ThermoFisher Scientific, Catalog #37074) working solution was added to the plates ([…]), and the signal was read using a luminometer at 425 nm.

[6] = target: T5, Pep2 (biotinylated (NHS-biotin), site not given); test: BLI (Gator), biotinylated peptide on streptavidin biosensor, 93B1B7 as analyte
T5 construct: also called Pep2 mSOST
T5 peptide: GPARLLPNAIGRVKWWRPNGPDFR
Method: (§2) The peptides were biotinylated (NHS-Biotin Reagents, Thermo, #21343) and immobilized on Streptavidin biosensor, using a 0.5 μg/ml solution.

[7] = target: T6, Pep3 (also: biotinylated (NHS-biotin), site not given here); test: as above
T6 construct: also called Pep3 h/mSOST
T6 peptide: GPARLLPNAIGR
Method: as §2

[8] = target: T7, Pep4 (also: biotinylated (NHS-biotin), site not given here); test: as above
T7 construct: also called Pep4 hSOST
T7 peptide: RLLPNAIGRGK
Method: as §2

[9] = target: T8, Pep7 (also: biotinylated (NHS-biotin), site not given here); test: as above
T8 construct: also called Pep7 hSOST
T8 peptide: KWWRPSGPDFR
Method: as §2

[10] = target: T9, Pep8 (also: biotinylated (NHS-biotin), site not given here); test: as above
T9 construct: also called Pep8 mSOST
T9 peptide: PNAIGRVKWWR
Method: as §2

[11] = target: T10, Pep9 (also: biotinylated (NHS-biotin), site not given here); test: as above
T10 construct: also called Pep9 mSOST
T10 peptide: IGRVKWWRPNGP
Method: as §2

[12] = target: T11, Pep10 (also: biotinylated (NHS-biotin), site not given here); test: as above
T11 construct: also called Pep 10 mSOST
T11 peptide: KWWRPNGPDFR
Method: as §2

[13] = target: T12, Pep1 (human, biotinylated (NHS-Biotin Reagents)); test: BLI (Gator), biotinylated peptide on streptavidin biosensor, 93B1B7 5 µg/ml as analyte
T12 construct: Chemically synthesized peptide of the second loop of human Sclerostin, biotinylated and immobilized on a streptavidin biosensor; also called hScl 110-133
T12 peptide: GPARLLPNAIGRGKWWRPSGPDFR
Method: as §2

[14] = target: T13, pep5 (human, also: biotinylated (NHS-biotin), site not given here); test: as above
T13 construct: Chemically synthesized peptide of the second loop of human Sclerostin, biotinylated and immobilized on a streptavidin biosensor
T13 peptide: PNAIGRGKWWR
Method: as §2

[15] = target: T14, pep6 (human, also: biotinylated (NHS-biotin), site not given here); test: as above
T14 construct: Chemically synthesized peptide of the second loop of human Sclerostin, biotinylated and immobilized on a streptavidin biosensor
T14 peptide: IGRGKWWRPSGP
Method: as §2

[16] = target: T1, human Sclerostin; test: cell-based or functional assay; remark: listed apart in the source
[17] = target: T3, human DKK1; test: cell-based or functional assay
[18] = target: T1, human Sclerostin; test: BLI (Gator), antibody on anti-hFc biosensor, antigen as analyte, 1:1 global fit
Method: (§3) Binding kinetics and affinities of anti-Sclerostin×anti-DKK1 and anti-Sclerostin×anti-RANKL bispecific antibodies were measured with Gator (Probe Life) bio-layer interferometry (BLI). Antibodies were immobilized on an anti-hFc biosensor, using a 5 μg/ml solution. Serial dilutions of sclerostin (from 1 μg/ml), DKK1 (from 2 μg/ml), or RANKL (from 4 μg/ml) by two folds in kinetics buffer (PBS, pH 7.4, 0.05% Tween-20, 0.2% BSA) were used as the analytes. Affinity (KD) and kinetic parameters (Kₒₙ and Koff) were calculated from a global fit (1:1) of the data using the Gator software.

[19] = target: T3, human DKK1; test: as above
Method: as §3

[20] = target: T1, human Sclerostin; test: BLI (Gator), antibody on anti-hFc biosensor, antigen as analyte; koff at LOD, KD estimated
Method: as §3

[21] = target: T3, human DKK1; test: as above
Method: as §3

EC50, Sclerostin-neutralisation activity in HEK293/TCF/LEF/Wnt1 cells (luciferase reporter) [1]: 14900 pM | Kd [2]: 240 pM | koff [2]: 0.0002 s⁻¹ | kon [2]: 780000 M⁻¹ s⁻¹ | Kd [3]: 55 pM | koff [3]: 8.06e-05 s⁻¹ | kon [3]: 1.54e+06 M⁻¹ s⁻¹ | binding result [4]: no binding (tested: 2 µg/ml)
B1: hAb-2 (antibody, V domains shown)
VH: EVQLVQSGAEVKKPGASVKVSCKASGYTFTDYEIHWVRQAPGKGLEWMGAIDPETGGTAYNQKFKGRVTMTTDTSTSTAYMELRSLRSDDTAVYYCYSYDYVTYWGQGTTVTVSS
VL: DIQMTQSPSSLSASVGDRVTITCRSSQSLLYSDGRTYLNWYQQKPGKSPKRLIYLVSKLDSGVPDRFSGSGSGTDFTLTISSLQPEDFATYYCWQGTHLPHTFGGGTKVEIK
notes: Humanized 93B1B7; also called humanized anti-Sclerostin antibody hAb-2

EC50, Sclerostin-neutralisation activity in HEK293/TCF/LEF/Wnt1 cells (luciferase reporter) [1]: 57900 pM | EC50 [5]: 40 pM | Kd [2]: 51 pM | koff [2]: 8.4e-05 s⁻¹ | kon [2]: 1e+06 M⁻¹ s⁻¹ | Kd [3]: 18 pM | koff [3]: 6.5e-05 s⁻¹ | kon [3]: 2.2e+06 M⁻¹ s⁻¹ | binding result [6]: no binding (tested: 5 µg/ml) | binding result [7]: no binding (tested: 5 µg/ml) | binding result [8]: no binding (tested: 5 µg/ml) | binding result [9]: no binding (tested: 5 µg/ml) | binding result [10]: no binding (tested: 5 µg/ml) | binding result [11]: no binding (tested: 5 µg/ml) | binding result [12]: no binding (tested: 5 µg/ml) | binding result [13]: binds | binding result [14]: binds | binding result [15]: binds
B2: 93B1B7 (antibody, V domains shown)
VH: QAQLQQSGAELVRPGASVTLSCKASGYTFTDYEIHWMKQTPVHGLEWIGAIDPETGGTAYNQKFKGKAILTADRSSSTAYLELRSLTSEDSAVYYCYSYDYVTYWGQGTLVTVSA
VL: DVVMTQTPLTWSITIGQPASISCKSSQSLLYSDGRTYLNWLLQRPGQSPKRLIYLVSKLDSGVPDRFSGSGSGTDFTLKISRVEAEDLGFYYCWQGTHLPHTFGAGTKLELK
notes: Murine monoclonal antibody from a hybridoma; also called mAb 93B1B7; Antibody 93B1B7

EC50, Sclerostin neutralization activity in HEK293/TCF/LEF/Wnt1 reporter gene assay [16]: 63800 pM | EC50, DKK1 neutralization activity in HEK293/TCF/LEF/Wnt1 reporter gene assay [17]: 41400 pM | kon [18]: 2.62e+06 M⁻¹ s⁻¹ | kon [19]: 330000 M⁻¹ s⁻¹ | Kd [20]: ~10 pM | Kd [21]: ~10 pM
B3: BAP0061 (bispecific antibody, human IgG4 S228P, kappa)
heavy 1: EVQLVQSGAEVKKPGASVKVSCKASGYTFTDYEIHWVRQAPGKGLEWMGAIDPETGGTAYNQKFKGRVTMTTDTSTSTAYMELRSLRSDDTAVYYCYSYDYVTYWGQGTTVTVSSASTKGPSVFPLAPCSRSTSESTAALGCLVKDYFPEPVTVSWNSGALTSGVHTFPAVLQSSGLYSLSSVVTVPSSSLGTKTYTCNVDHKPSNTKVDKRVESKYGPPCPPCPAPEFLGGPSVFLFPPKPKDTLMISRTPEVTCVVVDVSQEDPEVQFNWYVDGVEVHNAKTKPREEQFNSTYRVVSVLTVLHQDWLNGKEYKCKVSNKGLPSSIEKTISKAKGQPREPQVYTLPPSQEEMTKNQVSLSCAVKGFYPSDIAVEWESNGQPENNYKTTPPVLDSDGSFFLVSRLTVDKSRWQEGNVFSCSVMHEALHNRFTQKSLSLSLGK
light 1: DIQMTQSPSSLSASVGDRVTITCRSSQSLLYSDGRTYLNWYQQKPGKSPKRLIYLVSKLDSGVPDRFSGSGSGTDFTLTISSLQPEDFATYYCWQGTHLPHTFGGGTKVEIKRTVAAPSVFIFPPSDEQLKSGTASVVCLLNNFYPREAKVQWKVDNALQSGNSQESVTEQDSKDSTYSLSSTLTLSKADYEKHKVYACEVTHQGLSSPVTKSFNRGEC
heavy 2: not shown
light 2: DIRMTQSPFSLSASVGDRVTITCLASEDIYSDLAWYQQKPAKAPKLFIYNANSLQNGVPSRFSGSGSGTDYTLTISSLQPEDFATYYCQQYNNYPPTFGGGTKVEIKRTVAAPSVFICPPSDEQLKSGTASVVCLLNNFYPREAKVQWKVDNALQSGNSQESVTEQDSKDSTYSLSSTLTLSKADYEKHKVYACEVTHQGLSSPVTKSFNRGES
notes: Asymmetric knob-into-hole full length antibody: first Fab (hAb-2) recognizes Sclerostin, second Fab (11H10) recognizes DKK1

EC50, Sclerostin neutralization activity in HEK293/TCF/LEF/Wnt1 reporter gene assay [16]: 65400 pM | EC50, DKK1 neutralization activity in HEK293/TCF/LEF/Wnt1 reporter gene assay [17]: 44700 pM | kon [18]: 2.59e+06 M⁻¹ s⁻¹ | kon [19]: 129000 M⁻¹ s⁻¹ | Kd [20]: ~10 pM | Kd [21]: ~10 pM
B4: BAP0063 (bispecific antibody, human IgG4 S228P, kappa)
heavy 1: B3 heavy 1
light 1: B3 light 1
heavy 2: not shown
light 2: B3 light 2 with C118F, Q160C
notes: as for B3

Source: patent publication US20230312755A1 (ANGITIA, published 2023)
